In patent US20240067720A1 (SHANGHAI JUNSHI BIOSCIENCES, published 2024):

Molecular target: T1, hTIGIT expressed on Jurkat reporter cells (hTIGIT/NFAT-luciferase) (human, UniProt Q495A1 22-244)
T1 sequence (looked up): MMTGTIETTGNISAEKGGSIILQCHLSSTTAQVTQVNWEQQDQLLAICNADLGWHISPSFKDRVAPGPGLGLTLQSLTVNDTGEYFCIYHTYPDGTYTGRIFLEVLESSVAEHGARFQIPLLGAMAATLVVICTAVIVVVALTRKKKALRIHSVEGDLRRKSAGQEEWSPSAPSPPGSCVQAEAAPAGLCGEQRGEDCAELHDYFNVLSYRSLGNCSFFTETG
Experiment: cell-based or functional assay

EC50 of T cell activation; luminescence of Jurkat hTIGIT/NFAT-luciferase reporter cells co-cultured with CHO cells expressing hPVRL2: 0.0424 µg/mL
B1: humanized anti-TIGIT monoclonal antibody hu20 (antibody, human IgG4 S228P, kappa, V domains shown)
VH: QVQLVQSGAEVKKPGASVKVSCKTSGYAFTEYTMHWVRQAPGKGLEWMGGINPNTGGTTYNQKFQGRVTLTVDKSSSTAYMELSSLRSEDTVVYYCAKLLRLMYYFDYWGQGTLVTVSS
VL: DIQMTQSPSSLSASVGDRVTITCQASQDVRTAVAWYQQKPGKAPKLLIYSASYRYTGVPSRFSGSGSGTDFTFTISSLQPEDIATYYCHQHYITPWTFGGGTKVEIKR
